In general, stoichiometry N refers to the number of molecules, sites or subunits per partner or assembly.

In test [1] the target is KpSSBnPaSSBc (K. pneumoniae subsp. pneumoniae MGH 78578 | P. aeruginosa PAO1) (UniProt A6TGW7). The test is described as follows: SEC; purified protein (2 mg/mL) on Superdex 200 HR 10/30 in Buffer D (20 mM potassium phosphate, 1 mM EDTA, 100 mM NaCl, pH 7.0), 0.5 mL/min; calibrated with proteins of known molecular weight; oligomeric state from the native mass against the monomer mass. (In gel filtration, larger molecules generally elute earlier.)

Test [2] deals with KpSSBnStSSBc (K. pneumoniae subsp. pneumoniae MGH 78578 | S. enterica serovar Typhimurium LT2) (UniProt A6TGW7). The test is described as above.

As to “KpSSBnPaSSBc (from UniProt A6TGW7 1-91; P40947 91-165)”, the stoichiometry N in test [1] was determined as 4.

Take “KpSSBnStSSBc (from UniProt A6TGW7 1-91; P0A2F6 92-176)”: the stoichiometry N in test [2] is 4.
